# Values joined by “and” are separate entries in the source; they are usually repeats but may differ in a detail not shown here. Equal entries are not always repeated.
# Tested on: OC1OC[C@@H](O)[C@H](O)[C@H]1O
# Experiment: cells, lysate or membranes named
# Details: other: xylose 5 to 250 mM, pH 7.5, 30° C., 10 mM MgCl2, crude yeast extract, Hanes-Woolf plot
substance,measurement,value
"Piromyces sp. E2 xylose isomerase PiXI-O (PiXI; codon optimized gene PiXI-O, SEQ ID NO: 46), expressed in yeast (Piromyces sp. E2)",Km,40 mM and 39.87 ± 7.43 mM
